Laboratory results taken from paper PMC8406418 (2021).

Molecular target: T1, kappa-opioid receptor (KOR-EGFP) (Mus musculus, UniProt P33534)
T1 chain: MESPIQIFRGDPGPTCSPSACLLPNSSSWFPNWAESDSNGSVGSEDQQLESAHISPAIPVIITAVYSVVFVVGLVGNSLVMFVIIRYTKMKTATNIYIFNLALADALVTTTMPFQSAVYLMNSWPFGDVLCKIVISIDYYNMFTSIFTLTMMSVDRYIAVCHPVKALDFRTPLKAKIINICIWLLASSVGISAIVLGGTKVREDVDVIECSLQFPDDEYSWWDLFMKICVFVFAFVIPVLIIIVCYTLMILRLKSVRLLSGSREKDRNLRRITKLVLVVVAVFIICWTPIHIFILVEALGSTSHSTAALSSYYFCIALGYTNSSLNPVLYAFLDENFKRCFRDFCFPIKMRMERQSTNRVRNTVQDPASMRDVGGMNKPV
Test: radioligand displacement ([3H]-diprenorphine)

Ki: 0.3 nM
Binder: MAWQGLVLAACLL [dynorphin A1-13 1-13]
